From doi:10.1101/2021.11.17.468837

Biological target: cyAbrB1 (Sll0359), N-terminally 6*His-tagged recombinant protein (Synechocystis sp. PCC 6803)
Assay: native gel or EMSA

cyAbrB1 (Sll0359), N-terminally 6*His-tagged recombinant protein (natural protein)
stoichiometry N: 2
